Columns and labels:
[1] = target: T1, galectin-9 R238A (mutation in C-terminal CRD domain), expressed in CHO cells (mouse, UniProt O08573 1-353); assay: intracellular staining of transfected CHO cells by sTIM-3-Ig, flow cytometry
T1 construct: Intracellular staining; also called mutant galectin-9 C-terminal CRD
Method: (§1) FIGS. 12A-12C show galectin-9 recognizes the β-galactoside bond in oligosaccharide chains of TIM-3. FIG. 12A Galectin-9 expression plasmid was transiently transfected into CHO cells and fixed for intracellular staining by sTIM-3-Ig. Incubation buffers with different concentrations from 0 to 100 mM of α-lactose were used in the experiments. Bars in the histograph represent percentage of double positive cell population for EGFP and sTIM-3-Ig staining in presence of different concentration of a-lactose. FIG. 12B Two μg of r-galectin-9 was mixed with 4 μg sTIM-3-Ig in presence of different concentration of a-lactose from 0 to 100 mM in a pull-down experiment. Elutes from protein G beads were applied to SDS-PAGE and stained by Coomassie blue. A band at 50 kD represents sTIM-3-Ig, and the one at 38 kD stands for r-galectin-9. FIG. 12C CRD domains in galectin-9 are required for interaction with TIM-3. Constructs with mutation of R64A in N-terminal CRD domain (second column graphs), R238A in C-terminal CRD domain (third column graphs), or both (fourth column graphs) were generated and subcloned into expression vector pIRES2-EGFP. CHO cells were transiently transfected by wt (first column graphs) and mutant galection-9 expression plasmids (second through fourth column graphs) for intracellular staining by sTIM-3-Ig. EGFP and anti-human IgG-Fc-PE double positive standard for interaction between galectin-9 and sTIM-3-Ig.

[2] = target: T2, galectin-9 R64A and R238A (double mutation in both CRD domains), expressed in CHO cells (mouse, UniProt O08573 1-353); assay: as above
T2 construct: Intracellular staining; also called double mutant galectin-9
T2 sequence (O08573 other isoform, or with tags, fused parts or gaps R64A R238A R64A R238A): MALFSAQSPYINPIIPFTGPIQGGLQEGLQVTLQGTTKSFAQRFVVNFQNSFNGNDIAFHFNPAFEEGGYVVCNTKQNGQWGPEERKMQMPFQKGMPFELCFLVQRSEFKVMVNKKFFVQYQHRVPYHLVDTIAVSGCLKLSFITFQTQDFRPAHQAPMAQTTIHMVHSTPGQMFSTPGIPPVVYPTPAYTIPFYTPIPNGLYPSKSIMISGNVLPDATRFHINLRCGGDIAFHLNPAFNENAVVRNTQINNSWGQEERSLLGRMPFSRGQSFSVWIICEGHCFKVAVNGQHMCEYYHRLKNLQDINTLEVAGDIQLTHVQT
Method: as §1

[3] = target: T3, galectin-9 R64A (mutation in N-terminal CRD domain), expressed in CHO cells (mouse, UniProt O08573 1-353); assay: as above
T3 construct: Intracellular staining; also called mutant galectin-9 N-terminal CRD
T3 sequence (O08573 other isoform, or with tags, fused parts or gaps R64A R64A): as the sequence (O08573 other isoform, or with tags, fused parts or gaps R64A R238A R64A R238A) above, with A238R counted along it
Method: as §1

[4] = target: T4, murine galectin-9 long isoform (galectin-9-L), expressed in transiently transfected CHO cells (mouse, UniProt O08573 1-353); assay: intracellular staining of transfected CHO cells, anti-human IgG-Fc-PE, flow cytometry
T4 construct: Expressed from pIRES2-EGFP in CHO cells; intracellular staining of fixed cells
T4 sequence (O08573 whole entry, canonical isoform): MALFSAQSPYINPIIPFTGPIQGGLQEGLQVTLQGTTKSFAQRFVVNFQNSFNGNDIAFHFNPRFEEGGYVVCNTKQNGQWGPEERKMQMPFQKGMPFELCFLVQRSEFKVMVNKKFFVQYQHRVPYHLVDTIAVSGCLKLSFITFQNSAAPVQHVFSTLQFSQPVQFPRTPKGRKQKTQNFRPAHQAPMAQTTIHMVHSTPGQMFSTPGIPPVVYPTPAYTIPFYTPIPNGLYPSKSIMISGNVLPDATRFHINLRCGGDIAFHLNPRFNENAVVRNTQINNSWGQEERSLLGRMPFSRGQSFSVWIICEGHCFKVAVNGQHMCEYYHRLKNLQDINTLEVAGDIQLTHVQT
Excerpt: FIG. 11A Both regular and long isoforms for galectin-9 (galectin-9 and galectin-9-L respectively) are able to bind to TIM-3. Protein sequences between two galectin-9 isoforms are identical except a 31 amino acid peptide insert in the hinge region of galectin-9-L. Murine cDNAs for isoforms of galectin-9 from TK-1 cells were subcloned into a eukaryotic bicistronic expression vector pIRES2-EGFP. The plasmids were transiently transfected into CHO cells respectively. Cells were fixed for intracellular staining with flTIM-3-Ig (top row graphs), sTIM-3-Ig (center row graphs), and hIgG (bottom row graphs) and detected by anti-human IgG-Fc-PE 48 hours after transfection. EGFP positive signals in FACS analyses indicated transfected cells. The anti-human IgG-Fc-PE was used to detect the binding from Ig fusions or hIgG. FIG. 11B Murine cDNAs for galectin-9 (first column graphs), -4 (second column graphs), -3 (third column graphs), and -1 (fourth column graphs) were subcloned into pIRES2-EGFP. […]
To confirm the interaction between galectin-9 and TIM-3, both galectin-9 isoform cDNAs were subcloned into an expression vector that bicistronically expresses EGFP protein. […] In transient transfection, expression of galectin-9 was not detected on the cell surface. […]

[5] = target: T5, recombinant galectin-9 (r-galectin-9) (mouse, UniProt O08573 1-353); assay: pull-down with protein G beads, SDS-PAGE, Coomassie blue
T5 construct: Any vector-derived tag is not described; also called purified recombinant galectin-9
T5 sequence (O08573 other isoform, or with tags, fused parts or gaps limits assumed): as the sequence (O08573 other isoform, or with tags, fused parts or gaps R64A R238A R64A R238A) above, with A64R, A238R counted along it
Excerpt: FIG. 11A Both regular and long isoforms for galectin-9 (galectin-9 and galectin-9-L respectively) are able to bind to TIM-3. Protein sequences between two galectin-9 isoforms are identical except a 31 amino acid peptide insert in the hinge region of galectin-9-L. Murine cDNAs for isoforms of galectin-9 from TK-1 cells were subcloned into a eukaryotic bicistronic expression vector pIRES2-EGFP. The plasmids were transiently transfected into CHO cells respectively. Cells were fixed for intracellular staining with flTIM-3-Ig (top row graphs), sTIM-3-Ig (center row graphs), and hIgG (bottom row graphs) and detected by anti-human IgG-Fc-PE 48 hours after transfection. EGFP positive signals in FACS analyses indicated transfected cells. The anti-human IgG-Fc-PE was used to detect the binding from Ig fusions or hIgG. FIG. 11B Murine cDNAs for galectin-9 (first column graphs), -4 (second column graphs), -3 (third column graphs), and -1 (fourth column graphs) were subcloned into pIRES2-EGFP. The plasmids and the empty vector (fifth column graphs) that only produces EGFP were transiently transfected into CHO for intracellular staining by s-TIM-3-Ig respectively. The anti-human IgG-Fc-PE was used to detect sTIM-3-Ig binding. FIG. 11C Galectin-9 cDNA was subcloned into prokaryotic expression vector pTrcHis 2B. […]

[6] = target: T6, galectin-9 of TK-1 cells (biotinylated membrane associated 40 to 60 kD band, 35 kD after PNGase F) (UniProt O08573-2 1-322, limits assumed, surface biotinylated with NHS-LC-Biotin); assay: pull-down from lysate of surface biotinylated TK-1 cells, Protein G-agarose, Western blot
T6 construct: Endogenous protein pulled down from cell lysate; also called 35 kD protein
T6 sequence (O08573 other isoform, or with tags, fused parts or gaps limits assumed): as the sequence (O08573 other isoform, or with tags, fused parts or gaps R64A R238A R64A R238A) above, with A64R, D150N, A238R counted along it
Method: FIG. 10A TK-1 cells express the highest level of TIM-3 ligand(s). Three T cell lines, TK-1, S49.1G.3PHA 100/0, and BW1547.G.1.4, were stained by biotinylated sTIM-3-Ig (0.4 mg/ml) at 1:20 (top row graphs) and 1:50 dilutions (center row graphs), and detected by anti-human IgG-Fc-PE for the TIM-3 ligand expression. All T cell lines are stained positively by TIM-3 fusions FACS analysis, among which up to 90% of TK-1 were positively stained by both flTIM-3-Ig and sTIM-3-Ig (bottom row graphs). […] Extracellular membrane associated proteins on live TK-1 cells were biotinylated by NHS-LC-Biotin in PBS pH7.9 buffer at room temperature. Reaction was stopped by DMEM medium after 1 hour incubation. Cell lysate from the biotinylated TK-1 cells was used in pull-down experiment by incubating with 5 μg flTIM-3-Ig, sTIM-3-Ig, TIM-2-Ig, and hIgG respectively plus Protein G-agarose beads at 4° C. Protein samples eluted from beads were treated with or without PNGase F to remove N-linked sugar chains, and applied to SDS-PAGE and Western blot. Only signals from biotinylated membrane associated proteins bound to avidin conjugated peroxidase and were detected by chemiluminescent signal. […]

[7] = target: T7, murine galectin-9 (regular isoform), expressed in transiently transfected CHO cells (mouse, UniProt O08573 1-353); assay: intracellular staining of galectin-9 transfected CHO cells, flow cytometry
T7 construct: Expressed from pIRES2-EGFP in CHO cells; not found on the cell surface, detected by intracellular staining of fixed cells; also called regular galectin-9; wt galectin-9
T7 sequence (O08573 other isoform, or with tags, fused parts or gaps): as the sequence (O08573 other isoform, or with tags, fused parts or gaps R64A R238A R64A R238A) above, with A64R, A238R counted along it

T1 sequence (O08573 other isoform, or with tags, fused parts or gaps R238A R238A): as the sequence (O08573 other isoform, or with tags, fused parts or gaps R64A R238A R64A R238A) above, with A64R counted along it

Binder	binding result [1]	binding result [2]	binding result [3]	binding result [4]	binding result [5]	binding result [6]	binding result [7]
soluble Tim-3-Ig fusion protein (s-Tim-3-Ig) (Fc fusion, biotinylated in some cell staining experiments, not shown: human IgG1 Fc tail) LEDGYKVEVGKNAYLPCSYTLPTSGTLVPMCWGKGFCPWSQCTNELLRTDERNVTYQKSSRYQLKGDLNKGDVSLIIKNVTLDDHGTYCCRIQFPGLMNDKKLELKLDIKA	binds	no binding	binds	binds			
TIM-2-Ig (Fc fusion, UniProt Q8R183 22-231, looked up, Control Ig fusion; also called TIM-2 Ig fusion; not shown: Ig part of the fusion not described) HTAVQGLAGHPVTLPCIYSTHLGGIVPMCWGLGECRHSYCIRSLIWTNGYTVTHQRNSLYQLKGNISEGNVSLTIENTVVGDGGPYCCVVEIPGAFHFVDYMLEVKPEISTSPPTRPTATGRPTTISTRSTHVPTSTRVSTSTSPTPAHTETYKPEATTFYPDQTTAEVTETLPDTPADWHNTVTSSDDPWDDNTEVIPPQKPQKNLNKG					no binding	no binding (tested: 5 µg)	no binding
full-length Tim-3-Ig fusion protein (ex-Tim-3-Ig) (Fc fusion, biotinylated in some cell staining experiments, expressed in NS.1 cells; also called flTIM-3-Ig; flTim-3-Ig; not shown: human IgG1 Fc tail) RSLEDGYKVEVGKNAYLPCSYTLPTSGTLVPMCWGKGFCPWSQCTNELLRTDERNVTYQKSSRYQLKGDLNKGDVSLIIKNVTLDDHGTYCCRIQFPGLMNDKKLELKLDIKAAKVTPAQTAHGDSTTASPRTLTTERNGSETQTLVTLHNNNGTKISTWADEIKDSGETIRTA				binds			

— patent publication US20130183688A1 (BRIGHAM AND WOMEN S HOSPITAL, published 2013)
